Measured values reported in patent publication US20220153832A1 (PIONYR IMMUNOTHERAPEUTICS, published 2022).
“And” between values parts separate entries of the source, which are not always exact repeats. Equal entries are not always repeated. One block for each binder: values may come before it.

Experiments:
[1] = biological target: T1, recombinant cynomolgus MARCO protein (cynomolgus, UniProt A0A2K5X0Z2 65-519); test: KD (nM) Cyno; method not given
T1 construct: Construct not described; also called cyno MARCO; cynoMARCO
T1 sequence: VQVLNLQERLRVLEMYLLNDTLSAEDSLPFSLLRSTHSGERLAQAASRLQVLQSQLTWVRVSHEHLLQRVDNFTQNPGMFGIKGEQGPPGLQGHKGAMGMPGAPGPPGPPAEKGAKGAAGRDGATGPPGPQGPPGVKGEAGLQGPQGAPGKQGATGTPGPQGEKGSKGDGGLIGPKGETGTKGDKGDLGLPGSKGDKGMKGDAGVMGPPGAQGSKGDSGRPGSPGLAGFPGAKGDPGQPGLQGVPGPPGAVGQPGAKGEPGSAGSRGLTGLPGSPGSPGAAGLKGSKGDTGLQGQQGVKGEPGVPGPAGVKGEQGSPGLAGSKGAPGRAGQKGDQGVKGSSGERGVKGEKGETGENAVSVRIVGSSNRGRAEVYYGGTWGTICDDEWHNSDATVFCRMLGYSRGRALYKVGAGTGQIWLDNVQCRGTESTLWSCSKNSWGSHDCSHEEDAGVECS

[2] = biological target: T2, chimera Mouse MARCO CLD-human MARCO SRCR, on cells; test: flow cytometry, cells overexpressing HuSRCR-mouse CLD chimera
T2 chain: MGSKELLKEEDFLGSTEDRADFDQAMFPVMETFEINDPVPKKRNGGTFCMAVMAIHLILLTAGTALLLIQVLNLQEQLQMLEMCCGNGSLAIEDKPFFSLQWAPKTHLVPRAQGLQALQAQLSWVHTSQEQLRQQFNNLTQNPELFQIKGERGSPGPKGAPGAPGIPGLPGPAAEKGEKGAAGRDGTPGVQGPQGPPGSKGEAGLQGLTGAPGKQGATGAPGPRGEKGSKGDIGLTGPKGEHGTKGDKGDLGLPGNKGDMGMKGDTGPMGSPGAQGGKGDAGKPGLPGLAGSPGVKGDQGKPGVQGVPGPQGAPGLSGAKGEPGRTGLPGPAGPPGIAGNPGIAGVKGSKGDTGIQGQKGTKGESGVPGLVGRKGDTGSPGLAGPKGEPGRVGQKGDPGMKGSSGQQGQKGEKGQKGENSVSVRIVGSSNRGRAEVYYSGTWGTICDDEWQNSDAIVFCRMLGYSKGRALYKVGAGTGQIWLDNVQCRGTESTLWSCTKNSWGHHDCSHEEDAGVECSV

[3] = biological target: T3, N-terminally polyhistidine tagged human MARCO ECD (147-520), recombinant (human, UniProt Q9UEW3 147-520); test: KD (nM) Human; method not given
T3 construct: also called PI-RG-3000; recombinant human MARCO; not shown: N-terminal polyhistidine tag
T3 sequence: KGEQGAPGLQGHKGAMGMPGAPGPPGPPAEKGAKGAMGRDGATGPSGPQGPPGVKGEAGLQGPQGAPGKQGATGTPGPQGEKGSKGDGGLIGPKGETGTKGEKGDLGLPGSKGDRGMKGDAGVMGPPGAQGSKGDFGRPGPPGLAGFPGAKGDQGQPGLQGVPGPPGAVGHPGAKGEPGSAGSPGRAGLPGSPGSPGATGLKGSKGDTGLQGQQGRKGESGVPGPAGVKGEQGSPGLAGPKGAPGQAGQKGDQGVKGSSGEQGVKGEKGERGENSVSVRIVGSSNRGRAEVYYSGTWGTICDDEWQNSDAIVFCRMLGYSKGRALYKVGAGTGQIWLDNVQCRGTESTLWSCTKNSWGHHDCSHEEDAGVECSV

[4] = biological target: T4, N-terminal his-tagged mouse MARCO protein, recombinant (mouse, UniProt Q60754 150-518); test: Biacore
T4 construct: The entry holds the His tag, the CLD and the SRCR domain; also called mMARCO (RG3016); PI-RG-3016
T4 sequence: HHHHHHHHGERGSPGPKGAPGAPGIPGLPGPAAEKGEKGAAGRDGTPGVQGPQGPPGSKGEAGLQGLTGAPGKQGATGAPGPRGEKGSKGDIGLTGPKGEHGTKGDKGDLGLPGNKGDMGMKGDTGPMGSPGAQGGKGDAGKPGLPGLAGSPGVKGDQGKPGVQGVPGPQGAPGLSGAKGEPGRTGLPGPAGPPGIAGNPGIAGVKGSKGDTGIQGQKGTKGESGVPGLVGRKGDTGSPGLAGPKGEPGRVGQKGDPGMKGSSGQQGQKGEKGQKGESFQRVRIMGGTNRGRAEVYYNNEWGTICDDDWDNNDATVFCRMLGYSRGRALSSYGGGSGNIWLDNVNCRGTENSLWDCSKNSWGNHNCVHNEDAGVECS

[5] = biological target: T3, N-terminally polyhistidine tagged human …; test: Biacore; sample stressed 40 C 2 week
Experimental: Binding of the stressed samples to recombinant human MARCO was assessed by Biacore.

Kd [1]: 0.26 nM
EC50 [2]: 0.25 nM
Kd [3]: 0.43 nM and 0.64 nM
B1: PI-3010-AB (antibody, human IgG1, kappa)
heavy: not shown
light: DIQMTQSPASLSTSLGETVSIECLASEGISNDLAWYQQKSGKSPQLLIYAASRLQDGVPSRFSGSGSGTRYSLKISGMQPEDEADYFCQQSYKYPLTFGSGTKLEIKRTVAAPSVFIFPPSDEQLKSGTASVVCLLNNFYPREAKVQWKVDNALQSGNSQESVTEQDSKDSTYSLSSTLTLSKADYEKHKVYACEVTHQGLSSPVTKSFNRGEC

Kd [4]: < 0.02 nM
B2: PI-HX-3061 (antibody, rat IgG2a)
heavy: EVQLVESGGGLVQPGSSLKLSCVASKFTFSNYGMNWIRQAPKKGLEWIALIYYNSNNKYYADSVKGRFTISRDNSKNTLYLEMNSLRSEDTAMYYCAKSLTGGSDYFDSWGQGVMVTVSSAETTAPSVYPLAPGTALKSNSMVTLGCLVKGYFPEPVTVTWNSGALSSGVHTFPAVLQSGLYTLTSSVTVPSSTWPSQTVTCNVAHPASSTKVDKKIVPRNCGGDCKPCICTGSEVSSVFIFPPKPKDVLTITLTPKVTCVVVDISQDDPEVHFSWFVDDVEVHTAQTRPPEEQFNSTFRSVSELPILHQDWLNGRTFRCKVTSAAFPSPIEKTISKPEGRTQVPHVYTMSPTKEEMTQNEVSITCMVKGFYPPDIYVEWQMNGQPQENYKNTPPTMDTDGSYFLYSKLNVKKEKWQQGNTFTCSVLHEGLHNHHTEKSLSHSP
light: DVQMTQSPSYLAASPGESVSISCKASKSIGTFLAWYQEKPEKTNKLLIYSGSTLQSGTPSRFSGSGSGTDFTLTIRNLEPEDFAVYYCQQHDEYPFTFGSGTKLEIKRADAAPTVSIFPPSTEQLATGGASVVCLMNNFYPRDISVKWKIDGTERRDGVLDSVTDQDSKDSTYSMSSTLSLTKADYESHNLYTCEVVHKTSSSPVVKSFNRNEC
notes: Parental rat hybridoma, rat IgG2a; cross reactive with human and mouse MARCO

Kd [5]: 1.2 nM
B3: PI-3015-AB (antibody, human IgG1, kappa)
heavy: not shown
light: DIQMTQSPSSLSASVGDRVTITCRASEGISNDLAWYQQKPGKAPKLLIYAASRLQSGVPSRFSGSGSGTDYTLTISSMQPEDFATYYCQQSYKYPLTFGQGTKLEIKRTVAAPSVFIFPPSDEQLKSGTASVVCLLNNFYPREAKVQWKVDNALQSGNSQESVTEQDSKDSTYSLSSTLTLSKADYEKHKVYACEVTHQGLSSPVTKSFNRGEC
